According to patent US12594347B2, “Nanoparticulate drug delivery systems” (Duke University, priority 2018, dated 2026):
Several values for one entry are separate records, joined by “and”; a condition that tells them apart may be missing. Identical values can stand only once.

How the values were obtained:
C26 tumors = assay: Tumor regression and survival, C26 colon cancer model; format: in vivo, Balb/C mice
Protocol: (§1) Cell culture and tumor inoculation.
Tumor regression and survival. […] Tumor size and body weight were monitored over a span of two months. Tumor volume was calculated as follows: Volume [mm^3]=length×width 2×π/6. Mice with a tumor volume greater 1000 mm^3 or body weight loss greater than 15% were euthanized.

[1] = Dynamic and static light scattering; format: physicochemical; details: for Rh / Nagg / Rg: PBS; for Nagg / Rg: SLS
Protocol: Light Scattering. Dynamic and static light scattering measurements were performed using an ALV/CGS-3 goniometer system (Germany). […] To study the effect of albumin binding on micellar self-assembly, mouse albumin was added to the samples at 1:1 albumin-CP molar ratio in PBS. Measurements were obtained at 25° C. and 37° C. for angles between 30-150° at 5° increments with each angle consisting of 3 runs and 10 s each at each run. Hydrodynamic radius (Rh) was determined by dynamic light scattering. The radius of gyration (Rg) and the average molecular weight of the particle (MW) were calculated from the slope and intercept of a partial Zimm plot, respectively, using ALV/Dynamic and Static FIT and PLOT software and according. The micelle aggregation number Nagg, or the number of polypeptide chains per nanoparticle, was calculated by dividing the micelle molecular weight by the molecular weight of the polypeptide monomer.
Size and morphology of CP conjugated micelles. The radius and the aggregation number of the self-assembled micelles were determined, in the presence and absence of albumin, by dynamic and static light scattering at 37° C. using an ALV/CGS-3 goniometer system (Germany). Freeze fracture electron microscopy was performed to visualize the micelles and estimate their radius and morphology.

[2] = system: C26 murine colon adenocarcinoma cells
Protocol: C26 murine colon adenocarcinoma cells were seeded (5000 cells/well) in a 96-well plate. After 24 h, cells were treated in triplicate with 3-fold serial dilutions of drugs beginning with 100 uM. After 72 h incubation, 20 μL of CellTiter 96 AQueous™ (Promega; Madison, WI) 3-(4,5-dimethlthiazol-2-yl)-5-(3-carboxymethoxphenyl)-2-(4-sulfophenyl)-2H-tetrazolium (MTS) reagent was added to each well followed by 3 h incubation at 37° C. The absorbance at 490 nm was determined using a Victor3™ microplate reader (Perkin Elmer; Waltham, MA). For each plate, blank wells (with no cells) were defined as 0% viability and wells treated with PBS were defined as 100% viability. The background absorbance at 490 nm was corrected by subtracting the average absorbance of the blank wells from each well. The percent viability was defined as the absorbance of each well normalized to the absorbance of wells treated with PBS. Inhibitory concentration (IC 50) values were calculated using a four-parameter logistic fit in the Prism program (GraphPad Software, San Diego, CA, USA).

[3] = Thermal turbidimetry (transition temperature); format: physicochemical; details: PBS (FIG. 8D)
Protocol: Thermal Turbidimetry. Thermal profiles of CPs and CP conjugates were determined by measuring the transition temperature (Tt) over a range of concentrations (5, 10, 25, 50, and 100 uM) in PBS, FBS, and MS using a Cary UV-visible spectrophotometer equipped with temperature controller (Agilent Technologies, CA, USA). […] The transition temperature was defined as the maximum first derivative of the optical density.

[4] = target: mouse serum albumin (MSA) (Mus musculus, UniProt P07724); assay: Isothermal titration calorimetry (VP-ITC) of polypeptide carriers and DOX micelles with mouse albumin; format: binding; details: PBS pH 7.4, 37° C.
Chain of mouse serum albumin (MSA) (P07724 25-608): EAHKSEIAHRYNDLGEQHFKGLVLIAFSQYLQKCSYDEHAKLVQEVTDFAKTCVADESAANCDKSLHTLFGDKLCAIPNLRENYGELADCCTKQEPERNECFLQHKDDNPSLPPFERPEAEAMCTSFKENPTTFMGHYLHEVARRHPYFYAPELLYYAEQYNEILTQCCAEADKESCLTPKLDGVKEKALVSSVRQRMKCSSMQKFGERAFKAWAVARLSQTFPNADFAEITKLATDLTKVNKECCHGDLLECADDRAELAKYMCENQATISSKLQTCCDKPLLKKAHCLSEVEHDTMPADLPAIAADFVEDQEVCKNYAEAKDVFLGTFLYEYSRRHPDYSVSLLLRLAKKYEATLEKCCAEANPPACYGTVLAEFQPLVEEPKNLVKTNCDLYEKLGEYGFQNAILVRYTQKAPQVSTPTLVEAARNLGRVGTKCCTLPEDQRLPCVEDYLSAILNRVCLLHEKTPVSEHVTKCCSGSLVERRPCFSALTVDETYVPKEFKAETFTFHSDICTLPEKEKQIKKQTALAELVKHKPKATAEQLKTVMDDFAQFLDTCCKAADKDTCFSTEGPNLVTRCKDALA
Protocol: Interaction with albumin. Interaction of CP monomers and micelles with human and mouse albumin was analyzed by isothermal titration calorimetry (ITC).

[5] = pH dependent drug release
Protocol: pH dependent drug release. […] Samples were incubated at 37° C. for 0.0, 0.25, […], 0.5, 1, 2, 4, 6, or 24 hr and were neutralized by addition of pH 7.4 (0.1 M NaH2PO4). […] Eluting peaks were detected with a UV-Visible detector set at 490 nm. […] HPLC data was quantified by integrating the area under the peak corresponding to the free drug. […] For pH 5.0 samples, data points were fit by nonlinear regression to a first order release model: F %, released=a[1−exp(−ln(2) t/t1/2)] (1) where t is the time (hrs) after incubation, t1/2 is the half-life (hrs) of release, and a (%) is the maximum extent of drug release.

[6] = Biodistribution in C26 tumor-bearing mice; format: in vivo, Balb/C mice; details: 2 h and 24 h time points
Protocol: as §1
Biodistribution. […] At 2 and 24 h after injection, tissues (tumor, muscle, heart, lung, liver, spleen and kidney) were removed, weighed and suspended in 1.0 mL acidified isopropanol (75 mM HCl, 10% water, 90% isopropanol). Tissues were then homogenized using 2 mm diameter zirconia beads and a MiniBeadbeater-1TM (Biospec; Bartlesville, OK) for 2 min at 5,000 beats per minute and were incubated overnight at 4° C. in the dark. The isopropanol extracts were then vortexed, and centrifuged (14,000 RPM, 10 min, 4° C.) and 125 uL of the supernatant was loaded onto a black 96-well plate (BD Biosciences) in duplicate. […] To correct for background tissue fluorescence, tissues were removed from three untreated control mice and were processed similarly. For each tissue, a background (counts per mg tissue) curve was created using 2-fold dilutions of the processed tissues in acidified isopropanol.

[7] = Canine hematology one week after administration; format: in vivo, dogs (beagles and hounds); details: dogs
Source text: Canine pharmacokinetics and toxicities. […] If noted, supportive care was provided.

[8] = Pharmacokinetics of CP-DOX and ABDN-CP-DOX micelles in mice; format: in vivo; details: Balb/C mice; for Apparent distribution volume VD / Distribution half-life β t1/2 / Elimination rate constant kg / Plasma clearance CL / Plasma to tissue rate constant kpt / Tissue to plasma rate constant ktp / Area under the curve AUC / Elimination half-life α t1/2: tail vein; for Area under the curve AUC / Elimination half-life α t1/2: plasma DOX
Protocol: The isopropanol extract was then centrifuged (14,000 RPM, 10 min, 4° C.) and 125 uL of the supernatant was loaded onto a black 96-well plate (BD Biosciences) in duplicate.

[9] = one week after administration, individual subjects
[10] = printed 'at the dose of 10 mg/kg BW DOX equivalent' (first statement of b160)

B1: ABDN-CP-DOX (conjugate)
chain: LAEAKVLANRELDKYGVSDYYKNLINNAKTVEGVKALIDEILAALPVPGAGVPGAGVPGAGVPGAGVPGAGVPGAGVPGAGVPGAGVPGAGVPGAGVPGAGVPGAGVPGAGVPGAGVPGAGVPGAGVPGAGVPGAGVPGAGVPGAGVPGAGVPGAGVPGAGVPGAGVPGAGVPGAGVPGAGVPGAGVPGAGVPGAGVPGAGVPGAGVPGAGVPGAGVPGAGVPGAGVPGAGVPGAGVPGAGVPGAGVPGAGVPGAGVPGAGVPGAGVPGAGVPGAGVPGAGVPGAGVPGAGVPGAGVPGAGVPGAGVPGAGVPGAGVPGAGVPGAGVPGAGVPGAGVPGAGVPGAGVPGAGVPGAGVPGAGVPGAGVPGAGVPGAGVPGAGVPGAGVPGAGVPGAGVPGAGVPGAGVPGAGVPGAGVPGAGVPGAGVPGAGVPGAGVPGAGVPGAGVPGAGVPGAGVPGAGVPGAGVPGAGVPGAGVPGAGVPGAGVPGAGVPGAGVPGAGVPGAGVPGAGVPGAGVPGAGVPGAGVPGAGVPGAGVPGAGVPGAGVPGAGVPGAGVPGAGVPGAGVPGAGVPGAGVPGAGVPGAGVPGAGVPGAGVPGAGVPGAGVPGAGVPGAGVPGAGVPGAGVPGAGVPGAGVPGAGVPGAGVPGAGVPGAGVPGAGVPGAGVPGAGVPGAGVPGAGVPGAGVPGAGVPGAGVPGAGVPGAGVPGAGVPGAGVPGAGVPGAGVPGAGVPGAGVPGAGVPGAGVPGAGVPGAGVPGAGCGGCGGCGGCGGCGGCGGCGGCGG
C26 tumors; DOX equivalent dose of 20 mg/kg BW
  tumor bearing mice that survived 60 days after treatment: 50%
C26 tumors; mouse C26 colon cancer model, single treatment on day 0
  tumor growth (in words): significantly slower
[1]; 22 ° C.
  ρ = Rg/Rh: 0.62
  Nagg: 34.97
  Rg: 36.95 nm
[1]; 22 ° C., DLS
  Rh: 59.0 nm and 59.00 nm
[1]; 37 ° C.
  ρ = Rg/Rh: 0.766
  Nagg: 42.04
  Rg: 34.97 nm
[1]; 37 ° C., DLS
  Rh: 45.63 nm
[1]; DLS
  nanoparticle formation (in words): form nanoparticles
[1]; body temperature (37° C.)
  aggregation (in words): remain aggregate-free
[1]; room temperature (25° C.)
  aggregation (in words): Neither ABDN-CP-DOX nor ABDH-CP-DOX conjugates aggregate
[2]
  IC50: 310 nM
[3]
  transition temperature after drug (DOX) conjugation: 44 °C
[4]
  binding stoichiometry N: 1.01±0.00
[5]; acidic conditions, pH 5.0, 37° C.
  in vitro drug release (in words): released the loaded DOX
[5]; pH 7.4, 37° C.
  in vitro drug release / stability (in words): remained stable
[6]
  distribution to organs of the reticuloendothelial system i.e. liver and spleen (in words): significantly smaller than that of CP-DOX micelles
[7]; [9]
  Abonormal Lymphs: 0.157 10^3/μL and 0.561 10^3/μL
  Hematocrit: 42.7% and 43.9%
  Hemoglobin: 14.7 g/dL and 14.6 g/dL
  Lymphocytes: 1.572 10^3/μL and 1.122 10^3/μL
  MCH: 24.6 pg and 23.6 pg
  MCHC: 34.3 g/dL and 33.2 g/dL
  MCV: 71.7 fL and 71 fL
  MPV: 12.2 fL and 11.9 fL
  Monocytes: 0.314 10^3/μL and 0.21 10^3/μL
  PCT: 0.28% and 0.25%
  Packed Cell-Volume: 42%
  Plasma Protein: 6.2 g/dL and 5.8 g/dL
  Platelets: 228 X10^3/μL and 208 X10^3/μL
  RBC: 5.97 X10^6/μL and 6.19 X10^6/μL
  RDW: 12.8% and 11.7%
  Reticulocyte #: 0.025 X10^6/μL and 0.014 X10^6/μL
  Reticulocyte %: 0.43% and 0.23%
  Reticulocyte Absolute: 25000 µL⁻¹ and 14000 µL⁻¹
  Segmented Neutrophils: 5.502 10^3/μL and 4.276 10^3/μL
  WBC: 7.86 X10^3/μL and 7.01 X10^3/μL
[7]; one week after infusion
  abnormalities in blood hematology (in words): no hematology or serum chemistry abnormalities
[8]; 10 mg/kg BW DOX equivalent
  Apparent distribution volume VD: 0.34 ± 0.01 mL/g
  Distribution half-life β t1/2: 12.4 ± 1.4 min
  Elimination rate constant kg: 0.10 ± 0.01 h⁻¹
  Plasma clearance CL: 0.013 ± 0.000 mL/h/g
  Plasma to tissue rate constant kpt: 2.08 ± 0.27 h⁻¹
  Tissue to plasma rate constant ktp: 1.22 ± 0.13 h⁻¹
  Area under the curve AUC: 1400.4 ± 34.2 µM·h
  Elimination half-life α t1/2: 18.3 ± 0.6 h
[8]; 20 mg/kg BW DOX equivalent
  Apparent distribution volume VD: 0.25 ± 0.11 mL/g
  Distribution half-life β t1/2: 71.7 ± 17.5 min
  Elimination rate constant kg: 0.08 ± 0.00 h⁻¹
  Plasma clearance CL: 0.011 ± 0.000 mL/h/g
  Plasma to tissue rate constant kpt: 0.25 ± 0.07 h⁻¹
  Tissue to plasma rate constant ktp: 0.29 ± 0.07 h⁻¹
  Area under the curve AUC: 3328.5 ± 100.3 µM·h
  Elimination half-life α t1/2: 17.5 ± 0.8 h
[8]; 10 vs 20 mg/kg BW DOX equivalent
  linearity of pharmacokinetics (in words): linear pharmacokinetics
[8]; [10]
  bioavailability i.e. AUC: 3328.5 ± 100.3 µM·h
  half-life: 17.5 ± 0.8 h
